Measurements: patent CN112521508A (BEIJING GUANGWEI BIOTECHNOLOGY CO LTD, dated 2021)

T1: 人CD20蛋白 (human CD20) (human, UniProt P11836 1-297, limits assumed)
T1 construct: its title names human CD20; also called 抗原
T1 sequence (looked up): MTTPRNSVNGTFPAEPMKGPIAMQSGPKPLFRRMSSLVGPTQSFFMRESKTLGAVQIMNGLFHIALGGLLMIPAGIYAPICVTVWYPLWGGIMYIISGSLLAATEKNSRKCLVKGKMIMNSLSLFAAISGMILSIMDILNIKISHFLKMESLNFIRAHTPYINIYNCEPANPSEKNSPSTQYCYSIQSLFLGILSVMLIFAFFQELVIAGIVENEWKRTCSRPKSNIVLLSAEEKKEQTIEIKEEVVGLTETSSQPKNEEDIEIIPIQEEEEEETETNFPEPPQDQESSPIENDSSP


Target: T1, 人CD20蛋白 (human CD20)
Assay: SPR (CM5 chip), antibody captured by anti-human capture antibody, antigen as analyte

| Binder | Kd | koff | kon |
| --- | --- | --- | --- |
| hG7B2-IgG1 (antibody, V domains shown) VH: QVQLVQSGGEVKKPGASVKVSCKTSGYRFTSGKNAVWVRQAPGQGLEWMGGIATGKFNLSVDLQGRLTLTTDTSTSTAYMELGSLRPDDTAVYYCTRDIRLYAGDYWGQGTLVTVSS VL: DIVLTQPASVSGSPGQSVTISCSAIDGNCFNKVSWYQQHPGKAPKLMIYDASKRCTGIPERFSGSNSGNTATLTISRVEAGDEADYYCQAASKDAPITTFGRGTKLTVL | 0.215 nM | 5.31e-05 s⁻¹ | 246000 M⁻¹ s⁻¹ |
| Rituximab (antibody, V domains shown) VH: QVQLQQPGAELVKPGASVKMSCKASGYTFTSYNMHWVKQTPGRGLEWIGAIYPGNGDTSYNQKFKGKATLTADKSSSTAYMQLSSLTSEDSAVYYCARSTYYGGDWYFNVWGAGTTVTVSA VL: QIVLSQSPAILSASPGEKVTMTCRASSSVSYIHWFQQKPGSSPKPWIYATSNLASGVPVRFSGSGSGTSYSLTISRVEAEDAATYYCQQWTSNPPTFGGGTKLEIK | 5.46 nM | 0.000345 s⁻¹ | 63100 M⁻¹ s⁻¹ |
